Some results are limits rather than exact numbers.

Consider 1 molecule from patent US6365161.

For experiment [1], the target named is human FcγRI (CD64) on cells (human) (UniProt P12314). Nature of the experiment: flow cytometry, fluorescein-conjugated antibody on peripheral blood monocytes. Background: A flow cytometer gives signals particle by particle.
Experiment [2] has as its target soluble fusion protein consisting of the extracellular domain of human FcγRI and human IgM heavy chain (sFcγRI-µ) (human) (UniProt P12314). Nature of the experiment: ELISA on captured FcγRI/IgM heavy chain fusion protein, against a nonspecific human IgG1. (In an ELISA, binding on a coated surface is turned into a signal by an enzyme label.)

soluble fusion protein consisting of the extracellular domain of human FcγRI and human IgM heavy chain (sFcγRI-µ) (human), sequence (P12314 other isoform, or with tags, fused parts or gaps limits assumed): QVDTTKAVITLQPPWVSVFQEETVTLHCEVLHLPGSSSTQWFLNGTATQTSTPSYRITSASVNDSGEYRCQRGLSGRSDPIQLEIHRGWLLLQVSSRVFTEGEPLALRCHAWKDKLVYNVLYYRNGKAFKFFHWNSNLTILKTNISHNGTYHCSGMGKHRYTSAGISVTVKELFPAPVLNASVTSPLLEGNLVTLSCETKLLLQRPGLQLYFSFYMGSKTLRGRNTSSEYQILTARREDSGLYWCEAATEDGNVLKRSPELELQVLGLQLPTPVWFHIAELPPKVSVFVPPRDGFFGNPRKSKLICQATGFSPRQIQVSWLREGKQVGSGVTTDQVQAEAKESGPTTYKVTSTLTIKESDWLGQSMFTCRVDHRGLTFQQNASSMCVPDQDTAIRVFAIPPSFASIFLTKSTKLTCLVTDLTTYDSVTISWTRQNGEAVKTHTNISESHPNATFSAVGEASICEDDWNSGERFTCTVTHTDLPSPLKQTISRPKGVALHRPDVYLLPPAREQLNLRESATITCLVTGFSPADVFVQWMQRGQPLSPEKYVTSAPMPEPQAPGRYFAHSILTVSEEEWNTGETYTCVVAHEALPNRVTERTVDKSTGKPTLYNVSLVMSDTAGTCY
human FcγRI (CD64) on cells (human), sequence (P12314 16-374): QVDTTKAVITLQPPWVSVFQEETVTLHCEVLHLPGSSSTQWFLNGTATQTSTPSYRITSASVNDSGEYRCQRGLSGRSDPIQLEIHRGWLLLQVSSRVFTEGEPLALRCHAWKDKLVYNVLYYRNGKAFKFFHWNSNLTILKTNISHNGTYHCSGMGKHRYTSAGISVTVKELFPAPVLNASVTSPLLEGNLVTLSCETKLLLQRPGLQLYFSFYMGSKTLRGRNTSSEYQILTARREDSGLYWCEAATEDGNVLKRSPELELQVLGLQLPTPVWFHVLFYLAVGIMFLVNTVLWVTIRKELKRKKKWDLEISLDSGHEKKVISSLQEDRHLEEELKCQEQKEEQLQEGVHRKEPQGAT

B1: humanized anti-FcγRI antibody H22 (KOL VH/REI Vκ mAb) (antibody, from a related filing, V domains shown)
VH: EVQLVESGGGVVQPGRSLRLSCSSSGFIFSDNYMYWVRQAPGKGLEWVATISDGGSYTYYPDSVKGRFTISRDNSKNTLFLQMDSLRPEDTGVYFCARGYYRYEGAMDYWGQGTPVTVSS
VL: DIQLTQSPSSLSASVGDRVTITCKSSQSVLYSSNQKNYLAWYQQKPGKAPKLLIYWASTRESGVPSRFSGSGSGTDFTFTISSLQPEDIATYYCHQYLSSWTFGQGTKVEIK
Take B1: the Antibody sites per cell (antibody sites per cell) in experiment [1] is 10500. In experiment [2], this molecule gave a percent of binding via the Fv portion greater than 95%.
